Experimental data as given in the nanobody polyreactivity screen of Harvey et al. (2022).

Assay: yeast display, Sf9 membrane polyspecificity reagent, FACS + sequencing; frameworks hold sequencing errors
Method in brief: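 Sorting gates, low and high (top ~1%), were placed on anti-HA fluorescence to track expression and on streptavidin fluorescence to track reagent binding. A clone's polyreactivity label is taken from the gate it came out of. The reagent was 10% biotinylated, detergent-solubilized Sf9 membrane, applied for 1 hour at 4 °C to galactose-induced yeast display cells.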

Sequence	polyreactivity (PSR sort gate)
QVQLVESGGGLVQAGGSLRLSCAASGRTFVTNAMGWYRQAPGKERELVAAISYSGGSTTYADSVKGRFTISRDNAKNTVYLQMNSLKPEDTAVYYCNAQEDLVPKLRYYPPSDYWGQGTQVTVSS	low polyreactivity
QVQLVESGGGLVQAGGSLRLSCAASGSIFYVNTMGWYRQAPGKERELVAAISDSSGGTYYADSVKGRFTISRDNAKNTVYLQMNSLKPEDPAVYYCARDSTSHYDSGPYSSPFDYWGQGTQVTVSS	low polyreactivity
QVQLVESAAGLVQAGGSLRLSCAASGFIFWYYAMGWSRQAPGKERELVAAINSSGGSTYYADSVKGRFSISRDNAKNTVYLQMNSLKPEDSAVYYCAARAYQRGNYWGQGTQVTVSS	high polyreactivity
QVELVESGGGLVQAGGSLRLSCAASGITLRHYTMGWYRQAPGKVRELVATISRSGGRTYYADSVKGRFTISRDIAKNTVYLQMNSLKPEDTAFYYCARQFWRHWYGYWGQGTQVTVSS	high polyreactivity
QVQLVESGGGLVQAGGTLRLSCAASGSIFRGNGMGWYRQAPGKERELVAAISRSGGRTYYADSVKGRFTFSRDNAKNTVYLQMNSLKPEDTAVYYCAAVPPYNYRFRVYYWGQGSQVTVSS	high polyreactivity
QVQLVESGGGLVQAGGSLRLSCAASGSTFFWYAMGWYRQEPGKERELVAAINWRGDRTYYADSVKGRFTISRDNAKNTVYLQMNSLKPEDTAVYYCNAVRVHAYSTGEYGYWGQGTQVTVSS	high polyreactivity
QVQLVESRGGLVQAGGSLRLSCAASGRTFDRNAMGWYRQAPGKERQFVAAITSRVGSTYYADSVKGLFTISRDTAKNTVYLQMNSQKPEDTAVYDCNKRYFGEQTWVGGDSWGQGTLVTVSS	high polyreactivity
QVQLVESGGGLVQAGGSLRLSCAASGIIFHRNDMGWYRQAPGKERELVANIRDGGITYADSVKGRFTISRDKAKNTVYLQMNSLKPEDTAVYYCARDDTSPGYGDQSSNAAYYYWGQGTQVTVSS	low polyreactivity
QVQLVESGGGLVQAGGSLRISCAASGFIFTGTALGWYRQAPGKERELVAAITWSGGRTYYADSVKGRFTISRDNAKNTVYLQMNSLKPEDTAVYYCNVYFSIAQRYVGGLIAHDNYWGQGTQVTVSS	high polyreactivity
QVQLVESGGGLVQAGGSLRLSCAASGLIFQYYAMGWSRQAPGKERELVASISWSGSSTYYADSVKGRFTISRDNAKNTVYLQMISLKPEDTAVYYCAAGWGRGWYDYWGQGTQVTVSS	high polyreactivity
QVQLVESGGGLVQAGGSLRLSCAASGITFYRYAMGWYRQAPGKERELVAAIRGGGASTYYADSVKGRFTISRDNAKNTVYLQMNSLKPEDTAVYYCAARAARSITNGYWGQGTQVTVSS	high polyreactivity
QVQLVESGGGLVQAGGSLRLSCADSGRIFVRKAMGWYRQAPGKERELVAAISARGGRTNYADSVKGRFTISRDNAKNTVYLQMNSLKPEDTAVYYCAADGLRAAYLYDYWGQGTQVTVSS	high polyreactivity
QVKLVESGGGLVQAGGSLRLSCAASGFTYSANTMGWSRQAPGKERELVAAITRGGRPYYADSVKGRFTISRDNAKNTVYFQMNSLKPEDTAVYYCAKRATWYTVPREGYWGQGTQVTVSS	high polyreactivity
QVQLVESGGGLVQAGGSLRLSCAASGRTFRGYAMGWYRQAPGKETELVAAISSGGSTYYADSVKGRFTSSRDNAKYTVYLQMNSLKPEDTAVYYCARAVGNYRTLEFDYWGQGTQVTVSS	low polyreactivity
QVQLVESGGGLVQAGGSLRLSWAASGSIFFYYTIGWYRQAPGKERELVAAISVGGSTYYADSVKGRFTISRDNAKNTVYLQMNSLKPEDTAVYYSNAVPAKGFVTVVRYYYWGQGTQVTVSS	low polyreactivity
QVQLVESGGGLVQAGGSLRLSCAASGRTLGYYAMGWYRQAPGKERELVAAITSRTGTTYYADSVKGRFTISRDNAKNTVFLQMNSLKPEDTAVYYCNAAYYSTVLGWYLEYDYWGQGTQVTVSS	high polyreactivity
QVQIVESGGGLVQAGGSLRLSCAASGSIFRGYAKGWYRQAPGKERELVAAITQRAGSTYYADSVKGRFTISRDNAKNTVYLQMNSLKPEDTAVYYCAADVFYVFLHRVWYNYWGQGTQVTVSS	low polyreactivity
